Laboratory results taken from US20260015399A1 (Boehringer Ingelheim, published 2026).
*1 amine or outer side, *2 acyl side, *3 side chain or, on linkers, in order; H or OH if unused. Side-chain parts run from the residue outwards. The star is where a group is joined. C18 diacid = O=C(O)CCCCCCCCCCCCCCCCC(=O)*; γGlu = O=C(O)[C@H](CCC(=O)[*:2])N[*:1]; Isovaleryl = CC(C)CC(=O)*; Ahx = NCCCCCC(=O)O

B1: Compound 48 (peptide)
peptide: Isovaleryl-APAK([Ahx-γGlu-C18 diacid])PEEAATPEELQRYYISLRHYYNWLTRQRY-NH2
SMILES: CC[C@H](C)[C@H](NC(=O)[C@H](Cc1ccc(O)cc1)NC(=O)[C@H](Cc1ccc(O)cc1)NC(=O)[C@H](CCCNC(=N)N)NC(=O)[C@H](CCC(N)=O)NC(=O)[C@H](CC(C)C)NC(=O)[C@H](CCC(=O)O)NC(=O)[C@H](CCC(=O)O)NC(=O)[C@@H]1CCCN1C(=O)[C@@H](NC(=O)[C@H](C)NC(=O)[C@H](C)NC(=O)[C@H](CCC(=O)O)NC(=O)[C@H](CCC(=O)O)NC(=O)[C@@H]1CCCN1C(=O)[C@H](CCCCNC(=O)CCCCCNC(=O)CC[C@H](NC(=O)CCCCCCCCCCCCCCCCC(=O)O)C(=O)O)NC(=O)[C@H](C)NC(=O)[C@@H]1CCCN1C(=O)[C@H](C)NC(=O)CC(C)C)[C@@H](C)O)C(=O)N[C@@H](CO)C(=O)N[C@@H](CC(C)C)C(=O)N[C@@H](CCCNC(=N)N)C(=O)N[C@@H](Cc1c[nH]cn1)C(=O)N[C@@H](Cc1ccc(O)cc1)C(=O)N[C@@H](Cc1ccc(O)cc1)C(=O)N[C@@H](CC(N)=O)C(=O)N[C@@H](Cc1c[nH]c2ccccc12)C(=O)N[C@@H](CC(C)C)C(=O)N[C@H](C(=O)N[C@@H](CCCNC(=N)N)C(=O)N[C@@H](CCC(N)=O)C(=O)N[C@@H](CCCNC(=N)N)C(=O)N[C@@H](Cc1ccc(O)cc1)C(N)=O)[C@@H](C)O
B2: Compound 58 (peptide)
peptide: Isovaleryl-APEK([Ahx-γGlu-C18 diacid])PEEDATPEEVQRYYVSLRHYYNWLTRQRY-NH2
SMILES: CC(C)CC(=O)N[C@@H](C)C(=O)N1CCC[C@H]1C(=O)N[C@@H](CCC(=O)O)C(=O)N[C@@H](CCCCNC(=O)CCCCCNC(=O)CC[C@H](NC(=O)CCCCCCCCCCCCCCCCC(=O)O)C(=O)O)C(=O)N1CCC[C@H]1C(=O)N[C@@H](CCC(=O)O)C(=O)N[C@@H](CCC(=O)O)C(=O)N[C@@H](CC(=O)O)C(=O)N[C@@H](C)C(=O)N[C@H](C(=O)N1CCC[C@H]1C(=O)N[C@@H](CCC(=O)O)C(=O)N[C@@H](CCC(=O)O)C(=O)N[C@H](C(=O)N[C@@H](CCC(N)=O)C(=O)N[C@@H](CCCNC(=N)N)C(=O)N[C@@H](Cc1ccc(O)cc1)C(=O)N[C@@H](Cc1ccc(O)cc1)C(=O)N[C@H](C(=O)N[C@@H](CO)C(=O)N[C@@H](CC(C)C)C(=O)N[C@@H](CCCNC(=N)N)C(=O)N[C@@H](Cc1c[nH]cn1)C(=O)N[C@@H](Cc1ccc(O)cc1)C(=O)N[C@@H](Cc1ccc(O)cc1)C(=O)N[C@@H](CC(N)=O)C(=O)N[C@@H](Cc1c[nH]c2ccccc12)C(=O)N[C@@H](CC(C)C)C(=O)N[C@H](C(=O)N[C@@H](CCCNC(=N)N)C(=O)N[C@@H](CCC(N)=O)C(=O)N[C@@H](CCCNC(=N)N)C(=O)N[C@@H](Cc1ccc(O)cc1)C(N)=O)[C@@H](C)O)C(C)C)C(C)C)[C@@H](C)O
B3: Compound 49 (peptide)
peptide: Isovaleryl-APEK([Ahx-γGlu-C18 diacid])PEEDATPEELQRYYVLLRHYYNWLTRQRY-NH2
SMILES: CC(C)CC(=O)N[C@@H](C)C(=O)N1CCC[C@H]1C(=O)N[C@@H](CCC(=O)O)C(=O)N[C@@H](CCCCNC(=O)CCCCCNC(=O)CC[C@H](NC(=O)CCCCCCCCCCCCCCCCC(=O)O)C(=O)O)C(=O)N1CCC[C@H]1C(=O)N[C@@H](CCC(=O)O)C(=O)N[C@@H](CCC(=O)O)C(=O)N[C@@H](CC(=O)O)C(=O)N[C@@H](C)C(=O)N[C@H](C(=O)N1CCC[C@H]1C(=O)N[C@@H](CCC(=O)O)C(=O)N[C@@H](CCC(=O)O)C(=O)N[C@@H](CC(C)C)C(=O)N[C@@H](CCC(N)=O)C(=O)N[C@@H](CCCNC(=N)N)C(=O)N[C@@H](Cc1ccc(O)cc1)C(=O)N[C@@H](Cc1ccc(O)cc1)C(=O)N[C@H](C(=O)N[C@@H](CC(C)C)C(=O)N[C@@H](CC(C)C)C(=O)N[C@@H](CCCNC(=N)N)C(=O)N[C@@H](Cc1c[nH]cn1)C(=O)N[C@@H](Cc1ccc(O)cc1)C(=O)N[C@@H](Cc1ccc(O)cc1)C(=O)N[C@@H](CC(N)=O)C(=O)N[C@@H](Cc1c[nH]c2ccccc12)C(=O)N[C@@H](CC(C)C)C(=O)N[C@H](C(=O)N[C@@H](CCCNC(=N)N)C(=O)N[C@@H](CCC(N)=O)C(=O)N[C@@H](CCCNC(=N)N)C(=O)N[C@@H](Cc1ccc(O)cc1)C(N)=O)[C@@H](C)O)C(C)C)[C@@H](C)O
B4: Compound 57 (peptide)
peptide: Isovaleryl-APAK([Ahx-γGlu-C18 diacid])PEEDATPEEAQRYYVSLRHYYNWLTRQRY-NH2
SMILES: CC(C)CC(=O)N[C@@H](C)C(=O)N1CCC[C@H]1C(=O)N[C@@H](C)C(=O)N[C@@H](CCCCNC(=O)CCCCCNC(=O)CC[C@H](NC(=O)CCCCCCCCCCCCCCCCC(=O)O)C(=O)O)C(=O)N1CCC[C@H]1C(=O)N[C@@H](CCC(=O)O)C(=O)N[C@@H](CCC(=O)O)C(=O)N[C@@H](CC(=O)O)C(=O)N[C@@H](C)C(=O)N[C@H](C(=O)N1CCC[C@H]1C(=O)N[C@@H](CCC(=O)O)C(=O)N[C@@H](CCC(=O)O)C(=O)N[C@@H](C)C(=O)N[C@@H](CCC(N)=O)C(=O)N[C@@H](CCCNC(=N)N)C(=O)N[C@@H](Cc1ccc(O)cc1)C(=O)N[C@@H](Cc1ccc(O)cc1)C(=O)N[C@H](C(=O)N[C@@H](CO)C(=O)N[C@@H](CC(C)C)C(=O)N[C@@H](CCCNC(=N)N)C(=O)N[C@@H](Cc1c[nH]cn1)C(=O)N[C@@H](Cc1ccc(O)cc1)C(=O)N[C@@H](Cc1ccc(O)cc1)C(=O)N[C@@H](CC(N)=O)C(=O)N[C@@H](Cc1c[nH]c2ccccc12)C(=O)N[C@@H](CC(C)C)C(=O)N[C@H](C(=O)N[C@@H](CCCNC(=N)N)C(=O)N[C@@H](CCC(N)=O)C(=O)N[C@@H](CCCNC(=N)N)C(=O)N[C@@H](Cc1ccc(O)cc1)C(N)=O)[C@@H](C)O)C(C)C)[C@@H](C)O
B5: Compound 54 (peptide)
peptide: Isovaleryl-APEK([Ahx-γGlu-C18 diacid])PEEDATPEEAQRYYVSLRHYYNWLTRQRY-NH2
SMILES: CC(C)CC(=O)N[C@@H](C)C(=O)N1CCC[C@H]1C(=O)N[C@@H](CCC(=O)O)C(=O)N[C@@H](CCCCNC(=O)CCCCCNC(=O)CC[C@H](NC(=O)CCCCCCCCCCCCCCCCC(=O)O)C(=O)O)C(=O)N1CCC[C@H]1C(=O)N[C@@H](CCC(=O)O)C(=O)N[C@@H](CCC(=O)O)C(=O)N[C@@H](CC(=O)O)C(=O)N[C@@H](C)C(=O)N[C@H](C(=O)N1CCC[C@H]1C(=O)N[C@@H](CCC(=O)O)C(=O)N[C@@H](CCC(=O)O)C(=O)N[C@@H](C)C(=O)N[C@@H](CCC(N)=O)C(=O)N[C@@H](CCCNC(=N)N)C(=O)N[C@@H](Cc1ccc(O)cc1)C(=O)N[C@@H](Cc1ccc(O)cc1)C(=O)N[C@H](C(=O)N[C@@H](CO)C(=O)N[C@@H](CC(C)C)C(=O)N[C@@H](CCCNC(=N)N)C(=O)N[C@@H](Cc1c[nH]cn1)C(=O)N[C@@H](Cc1ccc(O)cc1)C(=O)N[C@@H](Cc1ccc(O)cc1)C(=O)N[C@@H](CC(N)=O)C(=O)N[C@@H](Cc1c[nH]c2ccccc12)C(=O)N[C@@H](CC(C)C)C(=O)N[C@H](C(=O)N[C@@H](CCCNC(=N)N)C(=O)N[C@@H](CCC(N)=O)C(=O)N[C@@H](CCCNC(=N)N)C(=O)N[C@@H](Cc1ccc(O)cc1)C(N)=O)[C@@H](C)O)C(C)C)[C@@H](C)O
B6: Compound 51 (peptide)
peptide: Isovaleryl-APEK([Ahx-γGlu-C18 diacid])PEEDATPEELQRYYVQLRHYYNWLTRQRY-NH2
SMILES: CC(C)CC(=O)N[C@@H](C)C(=O)N1CCC[C@H]1C(=O)N[C@@H](CCC(=O)O)C(=O)N[C@@H](CCCCNC(=O)CCCCCNC(=O)CC[C@H](NC(=O)CCCCCCCCCCCCCCCCC(=O)O)C(=O)O)C(=O)N1CCC[C@H]1C(=O)N[C@@H](CCC(=O)O)C(=O)N[C@@H](CCC(=O)O)C(=O)N[C@@H](CC(=O)O)C(=O)N[C@@H](C)C(=O)N[C@H](C(=O)N1CCC[C@H]1C(=O)N[C@@H](CCC(=O)O)C(=O)N[C@@H](CCC(=O)O)C(=O)N[C@@H](CC(C)C)C(=O)N[C@@H](CCC(N)=O)C(=O)N[C@@H](CCCNC(=N)N)C(=O)N[C@@H](Cc1ccc(O)cc1)C(=O)N[C@@H](Cc1ccc(O)cc1)C(=O)N[C@H](C(=O)N[C@@H](CCC(N)=O)C(=O)N[C@@H](CC(C)C)C(=O)N[C@@H](CCCNC(=N)N)C(=O)N[C@@H](Cc1c[nH]cn1)C(=O)N[C@@H](Cc1ccc(O)cc1)C(=O)N[C@@H](Cc1ccc(O)cc1)C(=O)N[C@@H](CC(N)=O)C(=O)N[C@@H](Cc1c[nH]c2ccccc12)C(=O)N[C@@H](CC(C)C)C(=O)N[C@H](C(=O)N[C@@H](CCCNC(=N)N)C(=O)N[C@@H](CCC(N)=O)C(=O)N[C@@H](CCCNC(=N)N)C(=O)N[C@@H](Cc1ccc(O)cc1)C(N)=O)[C@@H](C)O)C(C)C)[C@@H](C)O

Each binder was assayed against T1, human NPY2 receptor (human, UniProt P49146 1-381) (assay: RLB: displacement of 125I-PYY(1-36) from hNPY2R membranes).
T1 construct: whole, on cells; also called hNPY2-R; hNPY2R
T1 sequence (looked up): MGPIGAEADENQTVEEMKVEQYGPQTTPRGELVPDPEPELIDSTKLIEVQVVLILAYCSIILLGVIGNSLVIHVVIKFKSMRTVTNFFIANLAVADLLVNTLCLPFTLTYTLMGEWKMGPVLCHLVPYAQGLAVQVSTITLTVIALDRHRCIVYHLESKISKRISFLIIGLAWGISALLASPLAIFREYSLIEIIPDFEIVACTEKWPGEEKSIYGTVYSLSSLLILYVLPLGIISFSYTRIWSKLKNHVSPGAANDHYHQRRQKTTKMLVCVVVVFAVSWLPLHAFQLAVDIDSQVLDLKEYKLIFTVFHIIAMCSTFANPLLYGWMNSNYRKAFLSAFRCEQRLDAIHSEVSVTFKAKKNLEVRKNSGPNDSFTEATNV

Which Ki does the source give for B1 here?
The Ki was 1.54 nM.

How did the Ki turn out when B2 was run?
The Ki was 3.46 nM.

B3 was tested. Which Ki did it give?
Its Ki is 11.6 nM.

B4 was tested. Which Ki did it give?
Its Ki is 2.07 nM.

For B5, which Ki is on record?
Its Ki is 8.97 nM.

B6 was tested. Which Ki did it give?
Its Ki is 2.59 nM.
